# According to patent US20250207095A1:
# Molecular target: 4-1BB (UniProt Q07011)
# Experiment: cell-based or functional assay
# Sequence of 4-1BB (Q07011 24-255 limits assumed): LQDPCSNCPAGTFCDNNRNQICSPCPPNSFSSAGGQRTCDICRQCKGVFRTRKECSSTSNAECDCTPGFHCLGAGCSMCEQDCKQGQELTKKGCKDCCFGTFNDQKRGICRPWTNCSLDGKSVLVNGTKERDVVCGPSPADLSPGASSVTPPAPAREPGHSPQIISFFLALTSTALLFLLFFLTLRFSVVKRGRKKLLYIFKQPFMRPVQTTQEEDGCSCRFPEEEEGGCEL
substance,measurement,value
4-1BB ligand (from UniProt P41273 1-254),expansion of TRAC-1XX-iT cells from D35 to D42,30 fold
